Experimental data: PMC9544093

Columns and labels:
[1] = target: Bovine γ-globulin (Sigma-Aldrich G5009), a polyvalent antibody mixture of ~80 % IgG, ~10 % IgM and <10 % IgA (bovine); assay: fluorescence polarisation; steady-state fluorescence anisotropy; 0.43 uM dansyl-labelled γ-globulin titrated with 0-250 uM unlabelled γ-globulin; neat buffer; 20 °C; pressure not named for this value (ambient implied); fitted to a 1:1 (monomer to dimer) model
[2] = target: Bovine γ-globulin (Sigma-Aldrich G5009), a polyvalent antibody mixture of ~80 % IgG, ~10 % IgM and <10 % IgA (bovine); assay: fluorescence polarisation; steady-state fluorescence anisotropy; 0.43 uM dansyl-labelled γ-globulin titrated with 0-250 uM unlabelled γ-globulin; 0.5 M TMAO; 20 °C; pressure not named for this value (ambient implied); fitted to a 1:1 (monomer to dimer) model
[3] = target: Bovine γ-globulin (Sigma-Aldrich G5009), a polyvalent antibody mixture of ~80 % IgG, ~10 % IgM and <10 % IgA (bovine); assay: fluorescence polarisation; steady-state fluorescence anisotropy in a high-pressure cell; 0.43 uM dansyl-labelled γ-globulin titrated with 0-250 uM unlabelled γ-globulin; 0.5 M TMAO; 20 °C; p = 500 bar; fitted to a 1:1 (monomer to dimer) model
[4] = target: Bovine γ-globulin (Sigma-Aldrich G5009), a polyvalent antibody mixture of ~80 % IgG, ~10 % IgM and <10 % IgA (bovine); assay: fluorescence polarisation; steady-state fluorescence anisotropy in a high-pressure cell; 0.43 uM dansyl-labelled γ-globulin titrated with 0-250 uM unlabelled γ-globulin; neat buffer; 20 °C; p = 500 bar; fitted to a 1:1 (monomer to dimer) model

Work on “Bovine γ-globulin (Sigma-Aldrich G5009), a polyvalent antibody mixture of ~80 % IgG, ~10 % IgM and <10 % IgA” yielded a Ka [1] of 882 M⁻¹, a Ka [2] of 592 M⁻¹ and a Ka [3] of 997 M⁻¹. It also gave a Ka [4] of 1530 M⁻¹.
